Here are results for 1 molecule from PMC10745820, “Bode Phase Angle Signaling of a TB Disease Biomarker”.

The target of the series is interferon gamma (IFN-γ) (UniProt P01579 24-161). The series is described as follows: electrochemical impedance aptasensor (Bode phase angle); spiked pleural fluid, IFN-γ 0.2-2.2 pg/mL; linear 0.2-1.2 pg/mL; LOD 0.09 (abstract) or 0.11 pg/mL; no Kd; aptamer-free control sensor only slight change; Aptamer folded in 0.1 M phosphate buffer, 10 mM KCl, 2 mM MgCl2 (90 °C 10 min, 4 °C 5 min, RT 10 min); IFN-γ in spiked pleural fluid; EIS in phosphate buffer/PBS pH 7.4; binding temperature not stated. The conditions noted are these: chain copies: 2.
interferon gamma (IFN-γ), sequence (P01579 24-161): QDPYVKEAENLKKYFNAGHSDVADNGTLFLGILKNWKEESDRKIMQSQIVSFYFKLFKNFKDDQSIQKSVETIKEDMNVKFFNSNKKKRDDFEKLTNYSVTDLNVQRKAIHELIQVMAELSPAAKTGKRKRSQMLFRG

As to CGGCGAAGGCACGTGTGGGGTGGTCGCGT (ssDNA, 5' thiol (5ThioMC6-D, printed as 5thiolMCS-D)) [29-mer anti-IFN-γ aptamer], the binding result is “binds”.
